Earlier results in article PMC5321513.

What was measured:
[1] = biological target: 14-3-3σ (Homo sapiens) (UniProt P31947)
[2] = biological target: 14-3-3ζ (Homo sapiens) (UniProt P63104)
14-3-3ζ (Homo sapiens), sequence (P63104 whole entry): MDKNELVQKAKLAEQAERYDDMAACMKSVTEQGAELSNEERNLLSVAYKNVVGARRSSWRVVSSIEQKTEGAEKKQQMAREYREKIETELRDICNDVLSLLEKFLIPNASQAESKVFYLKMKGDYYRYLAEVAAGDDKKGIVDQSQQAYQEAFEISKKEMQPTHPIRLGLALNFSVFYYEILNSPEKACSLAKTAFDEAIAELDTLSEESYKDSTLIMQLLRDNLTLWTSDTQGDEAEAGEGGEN

14-3-3σ (Homo sapiens), sequence (P31947 whole entry): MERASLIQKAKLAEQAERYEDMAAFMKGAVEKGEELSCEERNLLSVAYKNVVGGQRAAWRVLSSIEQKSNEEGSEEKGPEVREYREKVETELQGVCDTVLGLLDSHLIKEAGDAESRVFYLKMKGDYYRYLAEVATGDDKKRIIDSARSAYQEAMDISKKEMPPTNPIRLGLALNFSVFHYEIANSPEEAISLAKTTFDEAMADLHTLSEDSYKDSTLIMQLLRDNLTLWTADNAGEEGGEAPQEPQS

Row | Kd [1] [µM] | Kd [2] [µM] | Substance
1 | 16.3 | – | p53 phosphopeptide (from UniProt P04637)
2 | – | 16.7 | C-RAF phosphopeptide (from UniProt P04049)
